Data published in PMC7672437.

Molecular target: Human recombinant full length DDX3X (human) (UniProt O00571)

For “Human recombinant full length DDX3X (from UniProt O00571 1-662) (enzyme)”, the helicase activity (unwinding of dsRNA Substrate *R18: R38) against DDX3X concentration, cooperativity index nH was 1.5, the helicase activity (unwinding of dsRNA Substrate *R18: R38) against DDX3X concentration, half-maximal enzyme concentration K1/2 was 0.26 µM and the nuclease (RNaseH2-like) activity against DDX3X concentration, cooperativity index nH (no cooperativity observed) was 0.7.
